Laboratory results reported in patent US20200199241A1 (Chugai, published 2020).
Residue numbers refer to the chain shown, from its start. Names and notes keep the numbering of the source. Where two headings read alike, the source gives them in different places. Blank lines part the entries; values can stand above or below the binder they belong to.

Assays:
human FcγRIIb [1] = biological target: T1, human FcγRIIb (human, UniProt P31994 43-217, limits assumed); test: SPR (Biacore); ratio against IgG1
T1 construct: also called FcγIIB
T1 sequence: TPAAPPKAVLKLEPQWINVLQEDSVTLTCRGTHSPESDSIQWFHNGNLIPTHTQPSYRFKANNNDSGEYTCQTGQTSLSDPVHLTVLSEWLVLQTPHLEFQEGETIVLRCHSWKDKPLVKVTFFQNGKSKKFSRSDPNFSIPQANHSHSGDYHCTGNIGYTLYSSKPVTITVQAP

human FcγRIIb [2] = biological target: T1, human FcγRIIb; test: SPR (Biacore); ratio against IgG1; remark: listed apart in the source
human FcγRIIb [3] = biological target: T1, human FcγRIIb; test: SPR (Biacore), antibody captured, FcγR as analyte
human FcγRIIb [4] = biological target: T1, human FcγRIIb; test: SPR (Biacore), antibody captured, FcγR as analyte; remark: listed apart in the source
[5] = biological target: T2, human FcRn (soluble human FcRn complexed with β2-microglobulin) (human, UniProt P61769 21-119, limits assumed); test: SPR, antibody captured by Protein L, human FcRn as analyte, pH 7.0, 25 C
T2 construct: also called hFcRn

mouse FcγRIIb [6] = biological target: T3, mouse FcγRIIb (mouse, UniProt P08101 30-207, limits assumed); test: SPR, antibody captured by Protein L, mouse FcγR as analyte, pH 7.4, 25 C
T3 construct: bought; also called mFcgRIIb; mFcgR IIb
T3 sequence (looked up): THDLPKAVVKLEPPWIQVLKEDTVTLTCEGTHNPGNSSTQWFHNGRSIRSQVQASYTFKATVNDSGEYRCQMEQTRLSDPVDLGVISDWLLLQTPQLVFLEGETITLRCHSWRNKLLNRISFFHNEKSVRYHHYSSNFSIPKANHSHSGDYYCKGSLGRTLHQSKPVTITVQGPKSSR

mouse FcγRIV [7] = biological target: T4, mouse FcγRIV (mouse, UniProt A0A0B4J1G0 21-203); test: as above
T4 construct: bought; also called mFcgRIV; mFcgR IV; the vendor's purification tag not given
T4 sequence: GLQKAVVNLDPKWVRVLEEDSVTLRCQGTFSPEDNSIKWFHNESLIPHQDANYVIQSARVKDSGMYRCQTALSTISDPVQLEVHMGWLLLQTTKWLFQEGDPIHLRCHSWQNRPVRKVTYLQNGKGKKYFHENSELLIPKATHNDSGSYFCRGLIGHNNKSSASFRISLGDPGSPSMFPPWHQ

[8] = biological target: T2, human FcRn (soluble human FcRn …); test: SPR, antibody captured by Protein L, human FcRn as analyte, pH 7.0, 25 C; remark: listed apart in the source
mouse FcγRI = biological target: T5, mouse FcγRI (mouse, UniProt P26151 25-297); test: SPR, antibody captured by Protein L, mouse FcγR as analyte, pH 7.4, 25 C
T5 construct: bought; also called mFcgRI; mFcgR 1
T5 sequence (looked up): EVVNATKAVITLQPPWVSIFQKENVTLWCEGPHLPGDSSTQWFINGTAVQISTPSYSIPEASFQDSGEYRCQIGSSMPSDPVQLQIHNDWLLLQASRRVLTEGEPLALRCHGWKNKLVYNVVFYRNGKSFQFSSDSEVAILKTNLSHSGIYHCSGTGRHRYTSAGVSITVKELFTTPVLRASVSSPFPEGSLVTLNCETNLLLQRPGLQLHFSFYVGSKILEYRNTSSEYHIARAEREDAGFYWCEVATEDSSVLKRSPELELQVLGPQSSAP

mouse FcγRIIb [9] = biological target: T3, mouse FcγRIIb; test: as above; remark: listed apart in the source
mouse FcγRIII = biological target: T6, mouse FcγRIII (mouse, UniProt P08508 31-215); test: as above
T6 construct: bought; also called mFcgRIII; mFcgR III
T6 sequence (looked up): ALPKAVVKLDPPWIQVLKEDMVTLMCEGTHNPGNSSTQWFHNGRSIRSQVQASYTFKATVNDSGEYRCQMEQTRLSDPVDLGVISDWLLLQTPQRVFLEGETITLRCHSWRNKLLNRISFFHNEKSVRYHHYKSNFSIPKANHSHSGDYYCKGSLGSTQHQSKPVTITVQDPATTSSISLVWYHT

mouse FcγRIV [10] = biological target: T4, mouse FcγRIV; test: as above; remark: listed apart in the source
[11] = biological target: T2, human FcRn (soluble human FcRn …); test: SPR, antibody captured by Protein L, human FcRn as analyte, pH 7.0, 25 C; remark: listed apart in the source
human FcγRIIb [12] = biological target: T7, human FcγRIIb (human, UniProt P31994 43-217, limits assumed); test: SPR, antibody captured by Protein L, human FcγR as analyte, pH 7.4, 25 C;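 also: biacore T100 or T200 with Protein L amine-coupled on a CM4 chip, FcγRs diluted in ACES saline with polysorbate 20, buffer-only injection as blank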
T7 construct: also called hFcgRIIb; FcγIIB
T7 sequence: T1 sequence

human FcγRIIIa(V) = biological target: T8, human FcγRIIIa(V) (human, UniProt P08637 17-208, limits assumed); test: as above
T8 construct: also called hFcgRIIIa(V); allotype V158
T8 sequence (P08637 other isoform, or with tags, fused parts or gaps limits assumed): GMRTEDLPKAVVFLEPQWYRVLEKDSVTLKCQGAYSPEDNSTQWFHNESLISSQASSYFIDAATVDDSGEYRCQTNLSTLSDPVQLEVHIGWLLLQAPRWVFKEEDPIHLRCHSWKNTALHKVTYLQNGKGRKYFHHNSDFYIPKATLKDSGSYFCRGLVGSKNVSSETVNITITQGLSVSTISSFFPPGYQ

human FcγRIa = biological target: T9, human FcγRIa (human, UniProt P12314 16-292, limits assumed); test: as above
T9 construct: also called hFcgRIa; hFcgRI
T9 sequence (P12314 16-292 limits assumed): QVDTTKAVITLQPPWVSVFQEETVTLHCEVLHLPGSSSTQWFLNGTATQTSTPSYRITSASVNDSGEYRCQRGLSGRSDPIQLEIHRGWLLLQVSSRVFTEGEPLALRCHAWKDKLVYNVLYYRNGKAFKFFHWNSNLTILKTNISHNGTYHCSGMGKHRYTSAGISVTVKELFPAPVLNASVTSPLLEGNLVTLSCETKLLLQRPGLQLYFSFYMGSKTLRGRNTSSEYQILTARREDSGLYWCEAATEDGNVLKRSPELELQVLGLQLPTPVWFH

human FcγRIIa(R) = biological target: T10, human FcγRIIa(R) (human, UniProt P12318 36-217); test: as above
T10 construct: also called hFcgRIIa(R); FcγRIIa type R
T10 chain: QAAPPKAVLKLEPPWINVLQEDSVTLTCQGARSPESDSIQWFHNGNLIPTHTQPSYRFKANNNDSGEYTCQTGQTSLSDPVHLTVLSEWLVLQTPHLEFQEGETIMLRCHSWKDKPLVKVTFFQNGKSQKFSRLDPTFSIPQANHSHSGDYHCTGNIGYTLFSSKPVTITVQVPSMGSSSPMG

human FcγRIIa(H) = biological target: T11, human FcγRIIa(H) (human, UniProt P12318 36-217); test: as above
T11 construct: also called hFcgRIIa(H); FcγRIIa type H
T11 sequence: T10 chain with R133H

B1: IgG1-v1 (antibody)
heavy: not shown
light: DIQMTQSPSSLSASVGDRVTITCRASQDISSYLNWYQQKPGKAPKLLIYYTSRLHSGVPSRFSGSGSGTDFTFTISSLQPEDIATYYCQQGNTLPYTFGQGTKVEIK
notes: IL6R-G1d with P238D (EU numbering); also called IL6R-G1d-v1
relative KD for FcγRIIb (KD for IgG1/KD for each variant) (human FcγRIIb [1]): 4.8
relative KD for FcγRIIb (KD for IgG1/KD for each variant) (human FcγRIIb [2]): 4.8
Kd (human FcγRIIb [3]): 1100 nM
Kd (human FcγRIIb [4]): 1100 nM

B2: IgG1-v4 (antibody)
heavy: not shown
light: B1 light
notes: IL6R-G1d with P238D/L328E (EU numbering); also called IL6R-G1d-v4; P238D/L328E
relative KD for FcγRIIb (KD for IgG1/KD for each variant) (human FcγRIIb [1]): 0.47
Kd (human FcγRIIb [3]): 11000 nM

B3: IgG1-v3 (antibody)
heavy: not shown
light: B1 light
notes: IL6R-G1d with S267E/L328F (EU numbering); also called S267E/L328F
relative KD for FcγRIIb (KD for IgG1/KD for each variant) (human FcγRIIb [2]): 408
Kd (human FcγRIIb [4]): 13 nM

B4: IgG1-v2 (antibody)
heavy: not shown
light: B1 light
notes: IL6R-G1d with L328E (EU numbering); also called L328E
relative KD for FcγRIIb (KD for IgG1/KD for each variant) (human FcγRIIb [1]): 2.3
Kd (human FcγRIIb [3]): 2300 nM

Other lines, results leading:

relative KD for FcγRIIb (KD for IgG1/KD for each variant) (human FcγRIIb [2]): 12
Kd (human FcγRIIb [4]): 450 nM
B5: IgG1-v5 (antibody)
heavy: QVQLQESGPGLVKPSETLSLTCAVSGHSISHDHAWSWVRQPPGEGLEWIGFISYSGITNYNPSLQGRVTISRDNSKNTLYLQMNSLRAEDTAVYYCARSLARTTAMDYWGEGTLVTVSSASTKGPSVFPLAPSSKSTSGGTAALGCLVKDYFPEPVTVSWNSGALTSGVHTFPAVLQSSGLYSLSSVVTVPSSSLGTQTYICNVNHKPSNTKVDKKVEPKSCDKTHTCPPCPAPELLGGDSVFLFPPKPKDTLMISRTPEVTCVVVDVEHEDPEVKFNWYVDGVEVHNAKTKPREEQYNSTYRVVSVLTVLHQDWLNGKEYKCKVSNKAFPAPIEKTISKAKGQPREPQVYTLPPSRDELTKNQVSLTCLVKGFYPSDIAVEWESNGQPENNYKTTPPVLDSDGSFFLYSKLTVDKSRWQQGNVFSCSVMHEALHNHYTQKSLSLSP
light: B1 light
notes: IL6R-G1d with P238D/S267E/L328F (EU numbering); The L chain is not restated for v5; also called IL6R-G1d-v5; P238D/S267E/L328F

Kd [5]: 94 nM
BINDING AMOUNT (RU) (mouse FcγRIIb [6]): -2.5 RU
BINDING AMOUNT (RU) (mouse FcγRIV [7]): 138 RU
B6: antibody with VH3-IgG1-F424 heavy chain and L(WT)-CK light chain (antibody)
heavy: B5 heavy with D240P, S241K, P259A, E269S, V310P, F330L, M430L, N436Y
light: not shown
notes: S239K/P257A/V308P/M428L/N434Y; copies: 2 + 2

Kd [8]: 12 nM
BINDING AMOUNT (RU) (mouse FcγRI): 0.6 RU
BINDING AMOUNT (RU) (mouse FcγRIIb [9]): -1.5 RU
BINDING AMOUNT (RU) (mouse FcγRIII): -12.9 RU
BINDING AMOUNT (RU) (mouse FcγRIV [10]): 7.2 RU
Kd [11]: 12 nM
BINDING AMOUNT (RU) (human FcγRIIb [12]): 0.16 RU
BINDING AMOUNT (RU) (human FcγRIIIa(V)): 3.64 RU
BINDING AMOUNT (RU) (human FcγRIa): 0.31 RU
BINDING AMOUNT (RU) (human FcγRIIa(R)): -0.27 RU
BINDING AMOUNT (RU) (human FcγRIIa(H)): -0.02 RU
B7: antibody with VH3-IgG1-F1009 heavy chain and L(WT)-CK light chain (antibody)
heavy: QVQLQESGPGLVKPSETLSLTCAVSGHSISHDHAWSWVRQPPGEGLEWIGFISYSGITNYNPSLQGRVTISRDNSKNTLYLQMNSLRAEDTAVYYCARSLARTTAMDYWGEGTLVTVSSASTKGPSVFPLAPSSKSTSGGTAALGCLVKDYFPEPVTVSWNSGALTSGVHTFPAVLQSSGLYSLSSVVTVPSSSLGTQTYICNVNHKPSNTKVDKKVEPKSCDKTHTCPPCPAPELRGGPKVFLFPPKPKDVLYISRTPEVTCVVVDVSHEDPEVKFNWYVDGVEVHNAKTKPREEQYNSTYRVVSVLQPLHADWLNGKEYKCKVSNKALPAPIEKTISKAKGQPREPQVYTLPPSRDELTKNQVSLTCLVKGFYPSDIAVEWESNGQPENNYKTTPPVLDSDGSFFLYSKLTVDKSRWQQGNVFSCSVMHEALHYHVTQKSLSLSP
light: not shown
notes: L235R/S239K/T250V/M252Y/T307Q/V308P/Q311A/N434Y/Y436V; copies: 2 + 2
